Test results taken from US20040152079A1 (Scripps Research, published 2004).

B1: human mini TyrRS (ligand)
chain: MGDAPSPEEKLHLITRNLQEVLGEEKLKEILKERELKIYWGTATTGKPHVAYFVPMSKIADFLKAGCEVTILFADLHAYLDNMKAPWELLELRVSYYENVIKAMLESIGVPLEKLKFIKGTDYQLSKEYTLDVYRLSSVVTQHDSKKAGAEVVKQVEHPLLSGLLYPGLQALDEEYLKVDAQFGGIDQRKIFTFAEKYLPALGYSKRVHLMNPMVPGLTGSKMSSSEEESKIDLLDRKEDVKKKLKKAFCEPGNVENNGVLSFIKHVLFPLKSEFVILRDEKWGGNKTYTAYVDLEKDFAAEVVHPGDLKNSVEVALNKLLDPIREKFNTPALKKLASAAYPDPSKQKPMAKGPAKNSEPEEVILEHHHHHH
modifications: Radioiodinated (125I) where used as the labelled ligand; iodinated residues not stated. Runs as a homodimer on gel filtration.
notes: Recombinant, made in E. coli
B2: type A IL-8 receptor (receptor, UniProt P25024 1-350, looked up)
chain: MSNITDPQMWDFDDLNFTGMPPADEDYSPCMLETETLNKYVVIIAYALVFLLSLLGNSLVMLVILYSRVGRSVTDVYLLNLALADLLFALTLPIWAASKVNGWIFGTFLCKVVSLLKEVNFYSGILLLACISVDRYLAIVHATRTLTQKRHLVKFVCLGCWGLSMNLSLPFFLFRQAYHPNNSSPVCYEVLGNDTAKWRMVLRILPHTFGFIVPLFVMLFCYGFTLRTLFKAHMGQKHRAMRVIFAVVLIFLLCWLPYNLVLLADTLMRTQVIQESCERRNNIGRALDATEILGFLHSCLNPIIYAFIGQNFRHGFLKILAMHGLVSKEFLARHRVTSYTSSSVNVSSNL
notes: whole, on cells; also called IL-8 receptor type A; CXCR1

Columns and labels:
[1] = target: PMN receptor for mini TyrRS (on human PMNs) (human); experiment: Scatchard analysis of ^125I-mini TyrRS binding to human PMNs at 4 C
Description: The supernatant was aspirated, and the cell sediment was resuspended using EcoLite (ICN Biomedicals, Irvine, Calif.) and analyzed in a scintillation counter.

human mini TyrRS = target: B1; experiment: radioligand binding (Scatchard) to RBL2H3 cells transfected with the type A IL-8 receptor
Experimental: Following incubation, cells were separated from unbound radioactivity as described herein.
Untransfected RBL2H3 cells express neither the type A nor type B receptors.

B1 was tested. Which Kd [1] did it give?
Its Kd is 21 nM.

How did the Kd (human mini TyrRS) turn out when B2 was run?
Its Kd is 8 nM.
